The source of these data is patent US8846873B2, “Antibodies directed to GPNMB and uses thereof” (Celldex Therapeutics, Inc., priority 2004, dated 2014).

“Also recorded” adds a separate entry of the source.

Assay [1] deals with SK-MEL-2 melanoma xenografts. The assay can be described thus: Human SK-MEL-2 melanoma xenograft in athymic mice. The class given is in vivo. Conditions: CR011-ONC-1, CR011-vcMMAE 5 mg/kg/treatment i.v. q4d x4, components at doses identical to those in the immunoconjugate. The procedure: Test Animals: Five- to 6-week old athymic mice (CD-1 nu/nu females), used for human tumor xenografts, were obtained from Harlan Laboratories (Indianapolis, Ind.). Animals were housed in specific pathogen-free conditions, according to the guidelines of the Association for Assessment and Accreditation of Laboratory Animal Care International (AAALAC International). Test animals were provided pelleted food and water ad libitum and kept in a room with conditioned ventilation (HVAC), temperature (22°±2° C.), relative humidity (55%±15%), and photoperiod (12 hr). All studies were carried out with approved institutional animal care and use protocols.
Human Melanoma Xenograft Models. The tumor inhibitory activity of the CR011-MMAE immunoconjugate was measured in an anti-tumor xenograft model using athymic mice, according to published methods (see Geran et al., Cancer Chemother. Rep. 3:1-104 (1972)). […] When tumors became established (10-20 days), the animals were pair-matched into groups (n=6 mice/group), and treatment was administered by intravenous injection (tail vein). […]
The effects of treatment were monitored by repetitive tumor measurements across 2 diameters with Vernier calipers; tumor size (in mg) was calculated using a standard formula, (W^2×L)/2, assuming a specific gravity of 1.0. Tumor size and body weights were assessed twice weekly. […]

The target in another assay is T1, GPNMB (Homo sapiens, UniProt Q14956).
T1 construct: made in house; host or cells: HEK 293
T1 sequence (Q14956 23-492): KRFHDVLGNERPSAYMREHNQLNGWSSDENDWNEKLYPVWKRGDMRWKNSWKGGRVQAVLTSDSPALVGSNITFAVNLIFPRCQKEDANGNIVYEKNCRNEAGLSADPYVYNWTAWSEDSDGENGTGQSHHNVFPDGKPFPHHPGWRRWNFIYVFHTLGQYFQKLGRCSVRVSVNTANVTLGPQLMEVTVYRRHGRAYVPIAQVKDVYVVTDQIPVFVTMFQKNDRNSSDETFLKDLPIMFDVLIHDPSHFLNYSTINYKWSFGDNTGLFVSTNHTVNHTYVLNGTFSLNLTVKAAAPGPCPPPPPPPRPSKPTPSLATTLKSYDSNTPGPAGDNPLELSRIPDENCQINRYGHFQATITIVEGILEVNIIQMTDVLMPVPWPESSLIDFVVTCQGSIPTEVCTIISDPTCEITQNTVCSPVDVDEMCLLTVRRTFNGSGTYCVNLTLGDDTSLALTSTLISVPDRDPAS
Kind of assay: BiaCore 2000 biosensor binding of hybridoma supernatant mAb to GPNMB. On the procedure: Certain Hybridoma cell supernatants (29) were analyzed for binding to GPNMB by BiaCore® 2000 biosensor equipped with a research-grade CMS sensor chip. A 1:25 dilution of cell supernatant was passed over a protein A surface for 5 min followed by washing the surface for 10 mins. Subsequently, GPNMB was injected for 90 sec. over the surface at a concentration of 880 nM followed by dissociation. Double-referenced binding data were obtained by subtracting the signal from a control flow cell and subtracting the baseline drift of a buffer injected just prior to the antigen injection. GPNMB binding ddata for each mAb was normalized for the amount of mAb captured on each surface. Normalized, drift corrected responses were also measured. The sensorgrams were fit to a simple 1:1 kinetic model.

Assay [2] concerns CG56972-expressing cancer cell lines. Kind of assay: Growth of CG56972-expressing cancer cell lines with naked CR011 or CR011 plus saporin-conjugated secondary antibody. It is filed as cell-based. To be noted: for effect on CG56972 expressing cells / growth, naked antibody: used directly. From the text: Fully human monoclonal antibodies (mAb)-IgG2 to CG56972/GPNMB, an antigen predominantly found on the surface of melanoma and brain tumor cells, were generated. The naked CR0111gG2 mAb (mAb 1.15) had no effect on CG56972 expressing cells either in vitro or in vivo. Thus we examined whether isotype switching from an IgG2 to an IgG1 might enable the mAb to kill human melanoma cells through ADCC effector functions.

The next assay has as its system SK-Mel-2 cells. Kind of assay: ADCC assay with human PBMC (DELFIA EuTDA cytotoxicity). To be noted: human PBMC 30 to 100 fold; 2, 5, 10 μg/200 μl; listed as CR011 IgG2. It is filed as cell-based. On the procedure: We next examined whether the CR0111gG1 mAb could induce ADCC in SK-MEL-2 cells in culture in the presence of human PBMC. Human PBMC were isolated from whole blood using a Ficoll-Plaque. Briefly, in a 50 mL tube, 15 mL of PBS was added to 20 mL of whole blood which was underlayed with 10 mL Ficoll-Plaque and the tube was centrifuged at 2000 RPM. Mononuclear cells were collected from the interface and washed 3 times with PBS. The ADCC assay was carried out in a 96 well plate using a fluorescence assay for cytolysis from Perkin-Elmer (DELFIA EuTDA Cytotoxic assay). The procedure is based on loading target cells with a fluorescence enhancing ligand (BATDA, bis (acetoxymethyl) terpyridine—dicarboxylate). The hydrophic ligand penetrates the membrane quickly. Within the cell the esterbonds are hydrolyzed to form a hydrophilic ligand (TDA, terpyridine—dicarboxylic acid) which can no longer pass through the membrane. After cytolysis the ligand is released and introduced to the Europium solution. The europium and the ligand form a highly fluorescent and stable chelate (EuTDA). Fluorescence intensity are recorded using excitation and emission wavelengths as λex=340 nm and λem=613 nm, respectively.

Setting [3] is: mAb captured on protein A, GPNMB 880 nM, 1:1 kinetic model.

B1: Mab1.15.1 (protein, listed as Homo sapiens)
chain: QVQLQESGPGLVKPSQTLSLTCTVSGGSISSFNYYWSWIRHHPGKGLEWIGYIYYSGSTYSNPSLKSRVTISVDTSKNQFSLTLSSVTAADTAVYYCARGYNWNYFDYWGQGTLVTVSSA
For the molecule B1, the tumor response result in assay [1] (listed as CR011 antibody alone) is “lack of tumor growth inhibition”; in assay [1] (listed as unconjugated CR011), “lack of responses”. In addition, the “binding to GPNMB” value with GPNMB (1:25 dilution of cell supernatant) is on record as “strong binding”. This molecule displayed a Kd with GPNMB (setting [3]) of 52 nM. In addition, the ka in the assay with GPNMB (setting [3]) was found to be 16524 M⁻¹ s⁻¹. Besides, in the assay with GPNMB (setting [3]), the kd worked out at 0.000855 s⁻¹. In addition, the “growth of CG56972-expressing cancer cells” value in assay [2] (combined with saporin-conjugated secondary antibody) is “could specifically inhibit the growth”. For the same molecule, the “effect on CG56972 expressing cells / growth, naked antibody” value in assay [2] was “no effect”; in assay [2] (listed as CR011), “did not inhibit the growth”. In addition, in the assay with SK-Mel-2 cells, the “ADCC / cytolysis of SK-MEL-2 cells” value is “do not cause ADCC; also recorded: did not show any cytolysis”.
